Assay results published in patent US20210371529A1.
Like-named read-outs stand apart in the source and are kept apart here.

Assays:
[1] = molecular target: human LAG-3 overexpressed on HEK293 cells (human) (UniProt P18627); experiment: flow cytometry on 293-hLAG-3 cells, MFI curve
[2] = molecular target: human LAG-3-His (human) (UniProt P18627); experiment: BLI (ForteBio), antibody on AHQ tip, human LAG-3-His 100 nM in solution, univalent
[3] = molecular target: LAG-3 on activated human CD4+ T cells (human) (UniProt P18627); experiment: flow cytometry on activated human CD4+ T cells, MFI curve
Chain of LAG-3 on activated human CD4+ T cells (human) (P18627 23-525): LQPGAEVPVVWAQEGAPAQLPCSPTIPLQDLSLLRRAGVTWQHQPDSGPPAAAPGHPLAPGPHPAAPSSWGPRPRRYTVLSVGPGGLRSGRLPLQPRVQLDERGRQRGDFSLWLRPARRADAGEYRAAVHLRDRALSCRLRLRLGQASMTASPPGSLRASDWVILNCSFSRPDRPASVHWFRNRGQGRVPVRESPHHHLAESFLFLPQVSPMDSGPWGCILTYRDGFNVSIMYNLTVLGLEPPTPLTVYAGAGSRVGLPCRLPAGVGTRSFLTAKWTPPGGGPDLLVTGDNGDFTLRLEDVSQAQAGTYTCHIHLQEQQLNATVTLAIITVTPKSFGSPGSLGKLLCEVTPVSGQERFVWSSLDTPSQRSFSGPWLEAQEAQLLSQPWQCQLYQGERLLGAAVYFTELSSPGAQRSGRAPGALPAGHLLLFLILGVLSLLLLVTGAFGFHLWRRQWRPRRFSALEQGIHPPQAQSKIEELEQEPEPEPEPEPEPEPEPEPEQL

[4] = molecular target: human LAG-3 overexpressed on HEK293 cells (human) (UniProt P18627); experiment: flow cytometry on 293-hLAG-3 cells, MFI curve; remark: listed apart in the source
[5] = molecular target: human LAG-3-His (human) (UniProt P18627); experiment: BLI (ForteBio), antibody on AHQ tip, human LAG-3-His 100 nM in solution
[6] = molecular target: rhLAG3 protein (huFc) (human) (UniProt P18627); experiment: flow cytometry, blocking of rhLAG3 (huFc) 20 nM binding to HLA-DR on CHO-DR cells
Chain of rhLAG3 protein (huFc) (human) (P18627 23-450 limits assumed): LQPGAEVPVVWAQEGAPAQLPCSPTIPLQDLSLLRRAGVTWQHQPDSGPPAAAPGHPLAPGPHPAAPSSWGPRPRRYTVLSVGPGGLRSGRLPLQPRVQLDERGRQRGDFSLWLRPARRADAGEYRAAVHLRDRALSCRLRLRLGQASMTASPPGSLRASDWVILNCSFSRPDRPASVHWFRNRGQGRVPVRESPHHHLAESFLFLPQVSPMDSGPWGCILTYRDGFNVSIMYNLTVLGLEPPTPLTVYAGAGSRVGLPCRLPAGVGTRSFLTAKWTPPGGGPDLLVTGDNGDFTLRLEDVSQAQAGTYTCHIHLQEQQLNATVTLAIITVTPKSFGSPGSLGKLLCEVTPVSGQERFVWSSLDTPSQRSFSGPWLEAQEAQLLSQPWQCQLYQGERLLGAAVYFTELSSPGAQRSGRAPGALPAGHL

Chain of human LAG-3-His (human) (P18627 23-450 limits assumed): as above
Chain of human LAG-3 overexpressed on HEK293 cells (human) (P18627 23-525): as the sequence (P18627 23-525) above

EC50 [1]: 3.34 nM | Kd [2]: 9.02 nM | EC50 [3]: 0.036 nM | EC50 [4]: 2.59 nM | koff [5]: 0.00101 s⁻¹ | kon [5]: 112000 M⁻¹ s⁻¹ | IC50 [6]: 5.14 nM
Substance: 25F7 (antibody)
